How the values were obtained:
[1] = tested on: Mouse T cell hybridoma cells (LTT cells); test: Murine FasL-mediated apoptosis of LTT cells (MTS cytotoxicity assay); assay type: cell-based; settings: test agent 1 μg/ml
Description: (§1) LTT,2,14,11 cells (LTT cells), see Glasebrook, Eur.J.Immunol. 17: 1561-65 (1987), were used in this Annexin V assay. On the first day, a 96 well plate was coated with anti-CD3 (2C11) at a serial dilutions. On the second day, 100,000 LTT cells were added, in 50 μl of medium per well, along with 50 μl of medium to the control wells and 50 μl of medium containing:
The same steps as in Example 16 were followed on Day 1 and Day 2. On Day 3 20 ul of MTS solution (Promega) was added to the cells which were then incubated at 37° C. for 2 hours. Using a plate reader, the absorbances at 490 nm wavelength were collected.

[2] = tested on: Ventricular cardiomyocytes; test: Hypoxia/reperfusion-induced cardiomyocyte apoptosis (nucleosome DNA ELISA)
Description: In particular, cardiomyocytes were incubated under hypoxia conditions for 8 hours, followed by 16 hours of culture under normal O2, which mimics the hypoxic conditions found in ischemic cardiac tissue.
Ventricular cardiomyocytes were isolated from the hearts of 1-3 day-old neonatal rats by trypsin digestion and non-myocytes were eliminated by pre-plating. Primary cultures were plated in special-coated 96-well plates in serum-free medium.
Hypoxia was induced by incubating cultures in glucose-free and oxygen-free (5% Co2 and 95% N2) for 8 hours. Reperfusion was mimicked by a 16 hour incubation in glucose-containing medium under normal oxygen conditions. At the end of this incubation, cardiomyocyte apoptosis was measured by the cytoplasmic nucleosome-associated DNA ELISA method. Test samples were incubated with mFLINT (2 μg/ml or 5 μg/ml) and control samples with Z-YVAD-fmk (50 μM), a commercial caspase inhibitor.

[3] = tested on: Mouse T cell hybridoma cells (LTT cells); test: Murine FasL-mediated apoptosis of LTT cells (Annexin V assay); assay type: cell-based; settings: test agent 1 μg/ml
Description: as §1
Group 1. solubleFas (sFas)(FasFc, mouse), with a final concentration of 1 μg/ml
Group 2. mFLINT (human), with a final concentration of 1 ug/ml
Group 3. anti-FasL (mouse), with a final concentration of 1 ug/ml.
These then were incubated overnight, at 37° C., in 5% CO2;
On the following day (Day 3), the cells were collected from each well, washed and labeled with Annexin V and PI, following Flow cytometry analysis.

LIGHT = LIGHT cell surface binding assay by flow cytometry; settings: LIGHT expressing cells preincubated with 10 fold excess of non tagged mFLINT
Description: To confirm the dot blot binding between LIGHT and mFLINT, 293 cells were transiently transfected with LIGHT expression construct overnight. On the next day, cells were detached and incubated with mFLINT-Flag on ice. […] As a control we used vector transfected cells. To make sure that the binding was specific, a competition assay with 10 fold access of untagged mFLINT was performed.
More particularly, 6 well dishes of cells were transfected as above. Both vector and m-LIGHT expressing cells were provided. Cells were detached from the plates by vigorous pipetting with a P100 Pipettor. Then, in PBS/BSA, 0.1%, cells were exposed to one of the following combinations, set forth in a-d.
a. GST/flag, mFLINT/flag, or HVEM at 20 nM;
b. FLINT/flag at 20 nM+GST/flag or mFLINT or HVEM at 200 nM;
c. FLINT/flag at 20 nM+HVEM+anti-human FAS ligand at 200 n-M;
d. anti-human FAS ligand-biotin at 1 μg/ml
Cells were incubated on ice for 30 minutes and washed with PBS/BSA, 0.1%. Cells then were exposed either to anti-human IgG-biotin, 1 μg/ml (for detection of HVEM), or to M2-biotin, 2 μg/ml (for detection of flag conjugates). Cells were incubated on ice for 30 minutes and washed with PBS/BSA, 0.1%. Thereafter, cells were exposed to streptavidin Alexa 488 (SIGMA) at a 1:1000 dilution. Again, cells were incubated on ice for 30 minutes and washed with PBS/BSA, 0.1 1%. Cells were analyzed using a FACSORT flow cytometer (Decton Dickinson) to determine binding.

[4] = target: T1, Fas-FasLigand interaction (Homo sapiens, UniProt P48023); test: ELISA: FLINT prevents Fas-FasLigand interaction; assay type: binding; settings: hFasLigand 30 ng, mrecFas 100 ng adsorbed
T1 sequence (P48023 103-281 limits assumed): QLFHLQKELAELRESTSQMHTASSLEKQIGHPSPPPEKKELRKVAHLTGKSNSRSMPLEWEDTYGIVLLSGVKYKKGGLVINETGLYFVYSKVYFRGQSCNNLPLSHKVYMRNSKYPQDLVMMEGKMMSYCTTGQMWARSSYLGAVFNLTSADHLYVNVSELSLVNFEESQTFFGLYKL
Description: As above, mrecFas (100 ng) was adsorbed on to ELISA plate. Again the plate was blocked by TBST and 0.1% Gelatine. […] As before, after washing of the plate, anti-mouse-Abs-HRP (3000 dilution, Bio-Rad) was added to the wells. After washings, visualization enzymatic reaction using ABTS as a substrate was performed.

osteoclasts = test: Porcine osteoclast differentiation assay (TRAP staining); assay type: cell-based, pig; settings: mean and standard error of 6 wells
Source text: Neonatal pigs (aged 1-5 days) were euthanized with CO2, the appendages were rinsed with 70% ethanol, the soft tissues were removed, and the humeri, radii, ulnae, femora, tibiae and fibulae were excised. The long bones were placed in ice-cold calcium and magnesium-free Hank's balanced salt solution (CMF-HBSS, Gibco BRL) and cleaned of all soft tissues. The bones were split longitudinally and the endosteal surfaces were scraped to remove both the marrow and trabecular bone. The suspension of trabecular bone particles and marrow cells was agitated by vigorous shaking and passed through a […] and then […] sieve. Cells were centrifuged at 500×g for 10 minutes at 4° C., the pellet was resuspended in CMF-HBSS, and then separated on a Ficoll-Paque gradient (Pharmacia, Piscataway, N.J.). The mononuclear cell fraction from the gradient was washed twice in CMF-HBSS and passed through a […] sieve. The cells were suspended in growth medium consisting of a-MEM (pH 7.2, which was modified to contain 8.3 mM NaHCO3 (Gibco BRL, Grand Island, N.Y.)), 10% heat-inactivated fetal bovine serum (FBS, Hyclone, Logan, Utah) and 2% antibiotic/antimycotic solution (Gibco BRL, Grand Island, N.Y.) and seeded onto tissue culture dishes at a density of 1×10^6 cells/cm^2. A typical marrow cell yield was between 1-2×10^9 cells/animal, which varied with the size of the animal. The cells were incubated at 37° C. in a humid incubator with 5% CO2. […] Following 5 days of culture, the cells were fixed with formalin (3.7% for 10 min) and then stained for tartrate-resistant acid phosphatase (TRAP) as in Example 6. The number of osteoclasts (TRAP-positive cells containing 3 or more nuclei) was quantitated.

B1: mFLINT: mature FLINT without leader peptide (FIG. 3), soluble TNFR superfamily member, made according to Examples 8 and 9 (protein)
chain: VAETPTYPWRDAETGERLVCAQCPPGTFVQRPCRRDSPTTCGPCPPRHYTQFWNYLERCRYCNVLCGEREEEARACHATHNRACRCRTGFFAHAGFCLEHASCPPGAGVIAPGTPSQNTQCQPCPPGTFSASSSSSEQCQPHRNCTALGLALNVPGSSSHDTLCTSCTGFPLSTRVPGAEECERAVIDFVAFQDISIKRLQRLLQALEAPEGWGPTPRAGRAALQLKLRRRLTELLGAQDGALLVRLLQALRVARMPGLERSVRERFLPVH
modifications: glycosylated
MTS absorbance at 490 nm ([1]; Anti CD3 conc. 0 μg/ml): 1.691 | MTS absorbance at 490 nm ([1]; Anti CD3 conc. 0.0014 μg/ml): 1.923 | MTS absorbance at 490 nm ([1]; Anti CD3 conc. 0.004 μg/ml): 1.982 | MTS absorbance at 490 nm ([1]; Anti CD3 conc. 0.012 μg/ml): 2.006 | MTS absorbance at 490 nm ([1]; Anti CD3 conc. 0.037 μg/ml): 2.006 | MTS absorbance at 490 nm ([1]; Anti CD3 conc. 0.11 μg/ml): 1.874 | MTS absorbance at 490 nm ([1]; Anti CD3 conc. 0.33 μg/ml): 1.671 | MTS absorbance at 490 nm ([1]; Anti CD3 conc. 1 μg/ml): 1.581 | inhibition of hypoxia-induced apoptosis ([2]; 10 μg/ml mFLINT, 8 hours hypoxia, 16 hours normal O2): 90% | inhibition of hypoxia/reperfusion-induced apoptosis ([2]; mFLINT 2 μg/ml or 5 μg/ml, duplicate experiments): essentially complete inhibition | % Annexin V Positive ([3]; Anti CD3 0): 26.47% | % Annexin V Positive ([3]; Anti CD3 0.11): 33.24% | % Annexin V Positive ([3]; Anti CD3 0.33): 35.89% | % Annexin V Positive ([3]; Anti CD3 1): 34.41% | competition of mFLINT-Flag binding (LIGHT): completely reversed to baseline peak | OD, 405 nM ([4]; FLINT 1 ng): 0.36 | OD, 405 nM ([4]; FLINT 5 ng): 0.36 | OD, 405 nM ([4]; FLINT 10 ng): 0.36 | OD, 405 nM ([4]; FLINT 50 ng): 0.28 | OD, 405 nM ([4]; FLINT 100 ng): 0.18 | OD, 405 nM ([4]; FLINT 500 ng): 0.06 | Osteoclasts/well (osteoclasts; FLINT 0.01 ng/ml, control 214.83): 68.83 ± 6.28 Osteoclasts/well | Osteoclasts/well (osteoclasts; FLINT 0.10 ng/ml): 176.17 ± 23.01 Osteoclasts/well | Osteoclasts/well (osteoclasts; FLINT 1.00 ng/ml): 228.50 ± 17.26 Osteoclasts/well | Osteoclasts/well (osteoclasts; FLINT 10.00 ng/ml): 228.50 ± 29.29 Osteoclasts/well | Osteoclasts/well (osteoclasts; FLINT 100.00 ng/ml): 382.33 ± 26.59 Osteoclasts/well

Reference: patent US20040167074A1, “Therapeutic applications of mFLINT polypeptides” (priority 1998, published 2004)
